Source: patent US20240336686A1 (ELPISCIENCE SUZHOU BIOPHARMA, published 2024)
Substitutions are numbered along the chain they refer to. In names and notes the source's numbering stands. Read-outs that look alike come from different tables or passages of the source. Each block holds one binder with its values, some of them ahead of it.

Key:
[1] = molecular target: T1, human Claudin18.2 protein (Octet assay) (human, UniProt P56856-2 1-261, limits assumed); test: Octet; antibody on sensor, Claudin18.2 protein in solution
T1 construct: UniProt P56856 isoform A2 corresponds to Claudin18.2; also called CLDN18.2
T1 sequence (looked up): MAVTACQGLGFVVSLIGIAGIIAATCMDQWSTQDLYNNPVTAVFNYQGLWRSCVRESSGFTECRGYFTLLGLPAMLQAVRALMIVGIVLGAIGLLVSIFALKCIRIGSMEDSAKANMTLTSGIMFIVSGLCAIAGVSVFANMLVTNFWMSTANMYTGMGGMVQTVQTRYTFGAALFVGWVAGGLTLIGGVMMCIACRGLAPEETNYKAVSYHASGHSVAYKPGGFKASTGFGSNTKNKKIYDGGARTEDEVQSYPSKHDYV
Protocol: The Anti-Claudin18.2/SIRPα bispecific protein were characterized for binding affinity against human Claudin18.2 or SIRPα using Octet assay (ForeBio) according to manufacturer's manual, separately. Briefly, the antibodies were coupled on sensors and then the sensors were dipped into Claudin18.2 or SIRPα protein gradients (start at 200 nM, with 2-fold dilution and totally 8 doses). Their binding responses were measured in real-time and results were fit globally.

[2] = molecular target: T2, human SIRPα v2 on CHOK1 cells (human, UniProt P78324 31-504); test: FACS, CHOK1 cells stably expressing human SIRPα v2
T2 construct: whole, on cells; also called CHOK1-hSIRPα v2; cell surface human SIRPα v2
Source text: (§1) Binding activity of the purified chimeric antibodies against human SIRPα variants was detected by FACS assay using CHOK1 cells or 293F cells stably expressing human SIRPα v1 and CHOK1 cells stably expressing human SIRPα v2. […] EC₅₀ and top signal calculated using GraphPad Prism9.0.

[3] = molecular target: T3, Full length human SIRPα v1 with beta-gal fragment (ED) at its C-terminal, in K562 cells (human, UniProt P78324 31-504); test: cell-based or functional assay
[4] = molecular target: T4, human SIRPα v2 ECD recombinant protein (human); test: competitive ELISA, plate-coated human SIRPα v2 ECD; blocked ligand: mFc tagged human CD47 ECD
T4 construct: extracellular domain; Coated on the ELISA plate
Protocol: (§2) Competitive ELISA assay was used to determine whether the purified chimeric antibodies can block CD47 and SIRPα interaction. Briefly, antibody and mFc tagged human CD47 ECD recombinant protein were co-incubated with ELISA microplate coated human SIRPα v1 ECD or human SIRPα v2 ECD recombinant protein. The concentration of soluble ECD of CD47 is 25 nM, and the concentration of soluble ECD of SIRPα is 20 nM. After washing, HRP labeled anti-mouse Fc 2nd antibody (Sigma) was added and incubated at 37° C. for 1 hour. Then, 100 μl/well of TMB solution (Biotechnology) was added. After incubation for 15 minutes at room temperature, the reaction was stopped by the addition of 50 μl of 1N HCl. OD 450 nm was read. Blocking ratio was determined by blockade of human SIRPα ECD recombinant protein binding to ELISA microplate coated human CD47 ECD recombinant protein. All antibodies as tested can block interaction between human CD47 and different human SIRPα variants.

[5] = molecular target: T5, human SIRPα v1 on CHOK1 cells (human, UniProt P78324 31-504); test: FACS, CHOK1 cells stably expressing human SIRPα v1
T5 construct: whole, on cells; also called CHOK1-hSIRPα v1; cell surface human SIRPα v1
Source text: as §1

[6] = molecular target: T6, human SIRPα v1 ECD recombinant protein (human, UniProt P78324 31-373); test: competitive ELISA, plate-coated human SIRPα v1 ECD; blocked ligand: mFc tagged human CD47 ECD
T6 construct: extracellular domain; Coated on the ELISA plate
Protocol: as §2

[7] = molecular target: T5, human SIRPα v1 on CHOK1 cells; test: FACS, CHOK1 cells stably expressing human SIRPα v1; remark: listed apart in the source
[8] = molecular target: T4, human SIRPα v2 ECD recombinant protein; test: competitive ELISA, plate-coated human SIRPα v2 ECD; blocked ligand: mFc tagged human CD47 ECD; remark: listed apart in the source
Protocol: as §2
(§3) The humanized antibodies were tested for the ability to block CD47 and SIRPα interaction with competitive ELISA assay (refer to methods described above).

[9] = molecular target: T2, human SIRPα v2 on CHOK1 cells; test: FACS, CHOK1 cells stably expressing human SIRPα v2; remark: listed apart in the source
[10] = molecular target: T3, Full length human SIRPα v1 with …; test: cell-based or functional assay; remark: listed apart in the source
[11] = molecular target: T7, Human SIRPα v2 (human); test: SPR (Biacore), 1:1 binding model
T7 construct: also called human SIRPα v2 (antigen of the Biacore assay)
Protocol: The humanized antibodies were characterized for binding affinity against human SIRPα v1, human SIRPα v2 using Surface Plasmon Resonance technology (Biacore system). The association and dissociation curves were fit with 1:1 binding model, and the Ka/Kd/KD values for each antibody were calculated.

[12] = molecular target: T6, human SIRPα v1 ECD recombinant protein; test: competitive ELISA, plate-coated human SIRPα v1 ECD; blocked ligand: mFc tagged human CD47 ECD; remark: listed apart in the source
Protocol: as §2, §3

[13] = molecular target: T2, human SIRPα v2 on CHOK1 cells; test: competitive FACS, CHOK1 cells stably expressing human SIRPα v2; blocked ligand: mFc tagged human CD47 ECD
Protocol: (§4) Competitive FACS assay was also set up to further compare the blocking activity of the humanized antibodies and some known anti-SIRPα antibodies. Briefly antibody and mFc tagged human CD47 ECD recombinant protein were co-incubated with CHOK1 cells stably expressing human SIRPα v1 or human SIRPα v2. After washing, dye labeled anti-mouse Fc 2nd antibody (Sigma) was added and incubated at 37° C. for 1 hour. Fluorescence intensity was detected. Blocking ratio was determined by blockade of human CD47 ECD recombinant protein binding to SIRPα expressed CHOK1 cells.

[14] = molecular target: T5, human SIRPα v1 on CHOK1 cells; test: competitive FACS, CHOK1 cells stably expressing human SIRPα v1; blocked ligand: mFc tagged human CD47 ECD
Protocol: as §4

T2 sequence (P78324 other isoform, or with tags, fused parts or gaps limits assumed): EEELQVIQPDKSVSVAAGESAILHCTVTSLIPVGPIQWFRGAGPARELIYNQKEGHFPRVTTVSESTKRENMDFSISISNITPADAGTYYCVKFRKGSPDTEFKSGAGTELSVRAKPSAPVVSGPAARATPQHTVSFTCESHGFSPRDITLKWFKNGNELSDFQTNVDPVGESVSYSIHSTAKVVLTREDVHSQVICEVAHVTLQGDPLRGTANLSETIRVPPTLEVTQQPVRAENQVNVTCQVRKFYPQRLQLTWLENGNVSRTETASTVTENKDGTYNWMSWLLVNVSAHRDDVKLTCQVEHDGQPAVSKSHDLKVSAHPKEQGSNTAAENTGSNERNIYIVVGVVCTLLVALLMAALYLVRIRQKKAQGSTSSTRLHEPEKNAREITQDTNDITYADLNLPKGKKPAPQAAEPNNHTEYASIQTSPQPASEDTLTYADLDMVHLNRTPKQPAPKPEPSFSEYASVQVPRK
T5 sequence (P78324 31-504): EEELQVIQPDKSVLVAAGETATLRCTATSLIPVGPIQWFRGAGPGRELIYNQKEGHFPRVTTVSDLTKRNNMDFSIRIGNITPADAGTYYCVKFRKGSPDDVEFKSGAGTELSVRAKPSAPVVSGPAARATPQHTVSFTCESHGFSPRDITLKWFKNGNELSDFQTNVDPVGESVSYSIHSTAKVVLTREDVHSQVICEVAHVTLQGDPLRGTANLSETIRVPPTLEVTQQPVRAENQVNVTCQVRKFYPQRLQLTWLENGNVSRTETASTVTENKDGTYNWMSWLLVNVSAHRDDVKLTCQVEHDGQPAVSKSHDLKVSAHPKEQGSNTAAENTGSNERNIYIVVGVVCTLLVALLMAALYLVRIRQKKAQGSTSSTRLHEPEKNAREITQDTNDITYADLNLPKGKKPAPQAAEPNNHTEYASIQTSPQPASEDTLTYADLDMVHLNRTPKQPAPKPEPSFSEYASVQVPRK
T3 sequence (P78324 31-504): as above
T6 sequence (P78324 31-373): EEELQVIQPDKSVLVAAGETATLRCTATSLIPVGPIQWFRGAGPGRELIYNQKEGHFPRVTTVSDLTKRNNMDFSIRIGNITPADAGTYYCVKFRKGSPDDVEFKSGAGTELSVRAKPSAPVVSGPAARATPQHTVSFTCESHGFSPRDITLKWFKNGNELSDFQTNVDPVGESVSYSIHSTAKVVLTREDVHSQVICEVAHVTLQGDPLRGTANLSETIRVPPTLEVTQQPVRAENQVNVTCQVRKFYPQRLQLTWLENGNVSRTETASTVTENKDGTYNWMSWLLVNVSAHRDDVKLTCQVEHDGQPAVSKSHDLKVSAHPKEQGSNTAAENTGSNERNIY

B1: Anti-Claudin18.2 antibody hu26.H1L2 (S92A) (antibody, V domains shown)
VH: EVQLLESGGGLVQPGGSLRLSCAASGFTLSSYALSWVRQAPGKGLEWVSYISNLGGSTFYPDTVKGRFTISRDNSKNTLYLQMNSLRAEDTAVYYCAKHLYNYDAFASWGQGTLVTVSS
VL: DIQLTQSPSFLSASVGDRVTITCRASSSVNYIHWYQQKPGKAPKALIYATSNLASGVPSRFSGSGSGTEYTLTISSLQPEDFATYYCQQWNANPLTFGQGTKLEIK
notes: Humanized monoclonal antibody; also called Anti-Claudin18.2, hu26.H1L2 (S92A)
Kd [1]: 1.81 nM
koff [1]: 6.25e-05 s⁻¹
kon [1]: 34500 M⁻¹ s⁻¹

B3: Anti-SIRPα antibody C15 (antibody, V domains shown)
VH: EVQLQQSGVEVVQPGASVKLSCTASGFNIEAYYMHWVKQRTEQGLEWIGRIDPEDGESKYAPKFQGKATMTADTSSSTAYLQLSSLTSDDTAVYYCVRGSYEYWGQGTTLTVSS
VL: QIVLTQSPAIMSASPGEKVTLTCSASSSVSSSYLYWYQQKPGSSPKLWIYSTSNLASGVPPRFSGSGSGTSYSLTISSMQAEDAASYFCYQWSSYPYTFGGGTKLEIK
notes: Mouse variable regions; tested as purified chimeric antibody; also called 015c
EC50 [2]: 1.58 nM
TOP MFI [2]: 50100 MFI
IC50 (SHP-1 recruitment blocking) [3]: 0.09 nM
TOP blocking (SHP-1 recruitment) [3]: 73.5%
IC50 [4]: 2.45 nM
TOP blocking [4]: 96.7%
EC50 [5]: 1.49 nM
TOP MFI [5]: 80000 MFI
IC50 [6]: 2.32 nM
TOP blocking [6]: 96.4%

B4: Anti-Claudin18.2/SIRPα bispecific antibody ES028-009 (bispecific antibody)
light (part 1 of 2): B3 VL with P61A, Q80E, Y90H
light (part 2 of 2): GGGGSGGGGSGGGGSDIVMTQSPDSLAVSLGERATINCKSSQSLLNAGNQKNYLTWYQQKPGQPPKLLIYWSSTRESGVPDRFSGSGSGTDFTLTISSLQAEDVAVYHCQNNYYYPLTFGGGTKLEIKGGGGSGGGGSGGGGSGGGGSQVQLVQSGAEVKKPGASVKVSCKASGYTFTNWVHWVRQAPGQGLEWMGEINPTNARSNYNEKFKKRVTMTRDTSTSTVYMELSSLRSEDTAVYYCARIYYGNSFAHWGQGTLVTVSS
heavy: EVQLQQSGAELVKPGASVKLSCTASGFNIKDYYMHWVKQRTEQGLEWIGRIDPEDGETKYAPKFQGKATITADTSSNTAYLQLSSLTSEDTAVYYCDRGLAYWGQGTLVTVSA
notes: not shown: CL; CH1-Fc
Kd [1]: < 0.001 nM
koff [1]: < 1e-07 s⁻¹
kon [1]: 21100 M⁻¹ s⁻¹

B5: Humanized anti-SIRPα antibody hu025.021 (antibody, V domains shown)
VH: EVQLVQSGAEVKKPGATVKISCKVSGFNIKDYYMHWVQQAPGKGLEWIGRIDPEDAETKYAPKFQGRVTITADTSTNTAYMELSSLRSEDTAVYYCDRGLAYWGQGTLVTVSS
VL: EIVLTQSPATLSLSPGERATLSCSASSSVSSSYLYWYQQKPGQAPKLWIYSTSNLASGIPARFSGSGSGTDYTLTISSLEPEDFAVYYCHQWSSYPYTFGQGTKLEIK
notes: Humanized from C25
EC50 [7]: 1.08 nM
TOP MFI [7]: 56400 MFI
IC50 [8]: 1.96 nM
TOP blocking [8]: 98.3%
EC50 [9]: 0.87 nM
TOP MFI [9]: 46400 MFI
IC50 (SHP-1 recruitment blocking) [10]: 0.1 nM
TOP blocking (SHP-1 recruitment) [10]: 86.3%
Kd [11]: 3.39 nM
koff [11]: 0.0056 s⁻¹
kon [11]: 1.65e+06 M⁻¹ s⁻¹
IC50 [12]: 2.07 nM
TOP blocking [12]: 97.7%

B7: Humanized anti-SIRPα antibody hu025.033 (antibody, V domains shown)
VH: B5 VH with N77D
VL: B5 VL
notes: Humanized from C25
EC50 [7]: 0.99 nM
TOP MFI [7]: 53800 MFI
IC50 [8]: 1.88 nM
TOP blocking [8]: 98.3%
EC50 [9]: 0.62 nM
TOP MFI [9]: 39800 MFI
IC50 (SHP-1 recruitment blocking) [10]: 0.19 nM
TOP blocking (SHP-1 recruitment) [10]: 84.5%
IC50 [12]: 2.22 nM
TOP blocking [12]: 97.2%

The next lines start with the values.

EC50 [2]: 12 nM
TOP MFI [2]: 19600 MFI
IC50 (SHP-1 recruitment blocking) [3]: 0.07 nM
TOP blocking (SHP-1 recruitment) [3]: 66.9%
IC50 [4]: 54.1 nM
TOP blocking [4]: 84.4%
EC50 [5]: 1.45 nM
TOP MFI [5]: 69800 MFI
IC50 [6]: 2.63 nM
TOP blocking [6]: 97%
B2: Anti-SIRPα antibody C59 (antibody, V domains shown)
VH: QVQLQQSGPELVKPGASVKMSCKASGYTFSEYVLSWVKQRTGQGLEWIGEIYPGTITTYYNEKFKGKATLTADKSSNTAYIQLTSLTSEDSAVYFCGRFYDYDGGWFAYWGQGTLLTVSA
VL: ENVLTQSPEKMAVSLGQKVTMTCSASSSVSSSDLHWYQQKSGASPKPLIHGTSNLASGVPARFSGSGSGTSYSLTISSVEAEDAATYYCQQWSGYPWTFGGGTNLEIK
notes: Mouse variable regions; tested as purified chimeric antibody; also called 059c

EC50 [7]: 1.13 nM
TOP MFI [7]: 57800 MFI
IC50 [8]: 2.07 nM
TOP blocking [8]: 98%
IC50 [13]: 0.75 nM
TOP blocking [13]: 100%
EC50 [9]: 0.81 nM
TOP MFI [9]: 45800 MFI
IC50 (SHP-1 recruitment blocking) [10]: 0.1 nM
TOP blocking (SHP-1 recruitment) [10]: 85.5%
Kd [11]: 2.78 nM
koff [11]: 0.00492 s⁻¹
kon [11]: 1.77e+06 M⁻¹ s⁻¹
IC50 [14]: 0.57 nM
TOP blocking [14]: 97.7%
IC50 [12]: 2.6 nM
TOP blocking [12]: 97.2%
B6: Humanized anti-SIRPα antibody hu025.023 (antibody, V domains shown)
VH: B5 VH
VL: B5 VL with Y72F
notes: Humanized from C25

EC50 [7]: 1.05 nM
TOP MFI [7]: 59400 MFI
IC50 [8]: 2.03 nM
TOP blocking [8]: 98.3%
EC50 [9]: 0.75 nM
TOP MFI [9]: 47300 MFI
IC50 (SHP-1 recruitment blocking) [10]: 0.1 nM
TOP blocking (SHP-1 recruitment) [10]: 78.8%
Kd [11]: 2.76 nM
koff [11]: 0.00392 s⁻¹
kon [11]: 1.42e+06 M⁻¹ s⁻¹
IC50 [12]: 2.48 nM
TOP blocking [12]: 97.1%
B8: Humanized anti-SIRPα antibody hu025.059 (antibody, V domains shown)
VH: B5 VH with V24A
VL: B5 VL
notes: Humanized from C25
